This passage reports stoichiometry N results from PMC11148769.

This assay has as its target BA.2.12.1 S trimer (SARS-CoV-2) (UniProt P0DTC2). As to the kind of experiment: cryo-EM structure.

What is called stoichiometry N is the number of molecules, sites or subunits per partner or assembly. In turn, “BA.2.12.1 S trimer (from UniProt P0DTC2 28-1208) (natural protein)” registered a stoichiometry N of 3.
